{
  "source": "IntAct's records for PubMed 11454741",
  "parents": {"B1": {"name": "Stonin-2 (Homo sapiens), Q8WXE9 (parent)", "chain": "MTTLDHVIATHQSEWVSFNEEPPFPAHSQGGTEEHLPGLSSSPDQSESSSGENHVVDGGSQDHSHSEQDDSSEKMGLISEAASPPGSPEQPPPDLASAISNWVQFEDDTPWASTSPPHQETAETALPLTMPCWTCPSFDSLGRCPLTSESSWTTHSEDTSSPSFGCSYTDLQLINAEEQTSGQASGADSTDNSSSLQEDEEVEMEAISWQASSPAMNGHPAPPVTSARFPSWVTFDDNEVSCPLPPVTSPLKPNTPPSASVIPDVPYNSMGSFKKRDRPKSTLMNFSKVQKLDISSLNRTPSVTEASPWRATNPFLNETLQDVQPSPINPFSAFFEEQERRSQNSSISSTTGKSQRDSLIVIYQDAISFDDSSKTQSHSDAVEKLKQLQIDDPDHFGSATLPDDDPVAWIELDAHPPGSARSQPRDGWPMMLRIPEKKNIMSSRHWGPIFVKLTDTGYLQLYYEQGLEKPFREFKLEICHEISEPRLQNYDENGRIHSLRIDRVTYKEKKKYQPKPAVAHTAEREQVIKLGTTNYDDFLSFIHAVQDRLMDLPVLSMDLSTVGLNYLEEEITVDVRDEFSGIVSKGDNQILQHHVLTRIHILSFLSGLAECRLGLNDILVKGNEIVLRQDIMPTTTTKWIKLHECRFHGCVDEDVFHNSRVILFNPLDACRFELMRFRTVFAEKTLPFTLRTATSVNGAEVEVQSWLRMSTGFSANRDPLTQVPCENVMIRYPVPSEWVKNFRRESVLGEKSLKAKVNRGASFGSTSVSGSEPVMRVTLGTAKYEHAFNSIVWRINRLPDKNSASGHPHCFFCHLELGSDREVPSRFANHVNVEFSMPTTSASKASVRSISVEDKTDVRKWVNYSAHYSYQVALGSIWLMLPTPFVHPTTLPLLFLLAMLTMFAW"}, "B2": {"name": "Synaptotagmin-1 (Rattus norvegicus (Rat)), P21707 (parent)", "chain": "MVSASHPEALAAPVTTVATLVPHNATEPASPGEGKEDAFSKLKQKFMNELHKIPLPPWALIAIAIVAVLLVVTCCFCVCKKCLFKKKNKKKGKEKGGKNAINMKDVKDLGKTMKDQALKDDDAETGLTDGEEKEEPKEEEKLGKLQYSLDYDFQNNQLLVGIIQAAELPALDMGGTSDPYVKVFLLPDKKKKFETKVHRKTLNPVFNEQFTFKVPYSELGGKTLVMAVYDFDRFSKHDIIGEFKVPMNTVDFGHVTEEWRDLQSAEKEEQEKLGDICFSLRYVPTAGKLTVVILEAKNLKKMDVGGLSDPYVKIHLMQNGKRLKKKKTTIKKNTLNPYYNESFSFEVPFEQIQKVQVVVTVLDYDKIGKNDAIGKVFVGYNSTGAELRHWSDMLANPRRPIAQWHTLQVEEEVDAMLAVKK", "partner": "B1 chain"}},
  "data": [
    {"variants_of": "B1", "settings": "with syt1_rat Syt1, P21707", "values": [
      {"variant": "W738A;K740A", "effect of a mutation on the interaction": "decreasing interaction"}
    ]},
    {"variants_of": "B2", "settings": "with ston2_human STON2, Q8WXE9", "values": [
      {"variant": "MVSASHPEALAAPVTTVATLVPHNATEPASPGEGKEDAFSKLKQKFMNELHKIPLPPWALIAIAIVAVLLVVTCCFCVCKKCLFKKKNKKKGKEKGGKNAINMKDVKDLGKTMKDQALKDDDAETGLTDGEEKEEPKEEEKLGKLQYSLDYDFQNNQLLVGIIQAAELPALDMGGTSDPYVKVFLLPDAAKKFETKVHRKTLNPVFNEQFTFKVPYSELGGKTLVMAVYDFDRFSKHDIIGEFKVPMNTVDFGHVTEEWRDLQSAEKEEQEKLGDICFSLRYVPTAGKLTVVILEAKNLKKMDVGGLSDPYVKIHLMQNGKRLKKKKTTIKKNTLNPYYNESFSFEVPFEQIQKVQVVVTVLDYDKIGKNDAIGKVFVGYNSTGAELRHWSDMLANPRRPIAQWHTLQVEEEVDAMLAVKK", "note": "[K189A;K190A]", "effect of a mutation on the interaction": "decreasing interaction"}
    ]}
  ]
}
